Experimental data published in patent US20120093805A1 (Kyowa Kirin, published 2012).

T1: human sugar chain-deficient CD27 expressed on Lec8 cells (human, UniProt P26842 20-260, O-linked sugar chains to which galactose is not bound, from expression in Lec8 cells)
T1 construct: CD27/Lec8-4 and CD27/Lec8-M19 are two clones that carry the same protein; also called CD27/Lec8-4; CD27/Lec8-M19
T1 sequence: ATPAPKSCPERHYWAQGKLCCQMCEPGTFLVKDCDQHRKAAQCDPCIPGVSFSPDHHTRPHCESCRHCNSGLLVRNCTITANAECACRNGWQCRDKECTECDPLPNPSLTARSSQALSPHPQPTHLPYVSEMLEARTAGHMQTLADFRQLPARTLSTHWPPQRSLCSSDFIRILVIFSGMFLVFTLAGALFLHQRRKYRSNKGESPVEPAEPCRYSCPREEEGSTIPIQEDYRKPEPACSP


Columns and labels:
[1] = target: T1, human sugar chain-deficient CD27 …; assay: flow cytometry (FCM) on CD27/Lec8-M19 cells [A]
Experimental: Reaction specificity of the anti-sugar chain-deficient CD27 humanized antibody was measured in the same manner as in Example 7(2). Regarding the cell lines, the CD27/DG44-4 cell and CD27/Lec8-M19 cell having almost the same antigen expression quantity, prepared by the same method of Example 2, were used as assaying cells.

[2] = target: T1, human sugar chain-deficient CD27 …; assay: flow cytometry (FCM) on CD27/Lec8-4 cells [A) (a]
Experimental: The CD27/DG44-4, CD27/Lec8-4 and Lec8 cells constructed in the same manner as in Example 2 were used as assay cells. The CD27/DG44-4 subcultured in an HT-medium supplemented with 500 μg/mL of G418, and the CD27/Lec8-4 subcultured in an HT-medium supplemented with 50 nmol/L of MTX and 500 μg/mL of G418 were peeled off using a 0.02% EDTA solution, and then washed with PBS.
After the reaction was complete, centrifugation was carried out twice with PBS, and ALEXA Fluoro 488-labeled anti-human immunoglobulin G(H+L), ALEXA Fluoro 488-labeled anti-mouse immunoglobulin G(H+L) or ALEXA Fluoro 488-labeled anti-human immunoglobulin M(μ) as a secondary antibody was added at a concentration of 50 μL/well, followed by reaction at ice temperature under shading for 30 minutes.
Again, centrifugation was repeated twice using PBS, and the cells were washed and suspended in 500 μL of 1% BSA-PBS. The fluorescence of 510 to 530 nm excited with a 488 nm argon laser was measured by a flow cytometer (manufactured by Beckman Coulter, Cytomics FC500 MPL).

[3] = target: T2, Lec8-produced CD27-Fc (human sugar chain-deficient CD27-Fc) (human, O-linked sugar chains to which galactose is not bound (Tn antigen), from production in Lec8 cells); assay: SPR, BIACORE T100, as in Example 7(1): Lec8-derived CD27-Fc on CM5 chip, antibody as analyte, bivalent analyte model
T2 construct: also called Lec8-derived CD27-Fc
Experimental: In order to analyze binding activity of anti-sugar chain-deficient CD27 humanized antibody to human sugar chain-deficient CD27 reaction kinetically, it was measured in the same manner as in Example 7(1) using BIACORE T100 (manufactured by BIACORE).

[4] = target: T2, Lec8-produced CD27-Fc (human sugar …); assay: SPR, Biacore T100; Lec8-derived CD27-Fc amine-coupled to CM5 chip, antibody as analyte, single-cycle kinetics, bivalent analyte model
Experimental: In order to kinetically analyze the binding activity of the anti-sugar chain-deficient CD27 chimeric antibodies chimeric KM4026, chimeric KM4028, and chimeric KM4030 to the human sugar chain-deficient CD27-Fc, the binding activity was measured by surface plasmon resonance method (SPR method). All of the following manipulations were carried out using Biacore T100 (manufactured by GE Healthcare Bio-Sciences).
The Lec8-derived CD27-Fc obtained in Example 1(7) was immobilized on a CM5 sensor chip (manufactured by GE Healthcare Bio-Sciences) by amine coupling. Assay samples (chimeric KM4026, chimeric KM4028, chimeric KM4030 and chimeric KM4031), which were serially 3-fold diluted from 9 μg/mL to give 5 different concentrations, were sequentially and continuously added to the CD27-Fc-immobilized chip in order of increasing concentrations, in accordance with an automated program (Single Kinetix), followed by measurement.
Using the analysis software, Biacore T100 Evaluation software (manufactured by Biacore) installed on the apparatus, the analysis was carried out using Bivalent Analyte Model to calculate thereby an association rate constant ka and a dissociation rate constant kd of each antibody for the human sugar chain-deficient CD27-Fc.

[5] = target: T3, sugar chain-deficient cynomolgus CD27 (C-terminal His tag) expressed on Lec8 cells (cynomolgus); assay: flow cytometry (FCM) on cynomolgus CD27/Lec8 cells (Example 11(5)) [A]
T3 construct: whole, on cells; also called cynomolgus CD27/Lec8 cell; sugar chain-deficient cynomolgus CD27 cell
Experimental: Binding activity of the anti-sugar chain-deficient CD27 humanized antibodies HV0LV0, HV5LV0 and HV7LV0 for cynomolgus CD27 expression cells was measured by a fluorescent cell staining method (cytometer analysis) in the same manner as in Example 9(1). The cynomolgus CD27/DG44 cell and cynomolgus CD27/Lec8 cell prepared in Example 8 were used as the cynomolgus CD27 expression cells.

Kd [4]	koff [4]	kon [4]	EC50 (read off the curve) [5]	Binder	further results
1.07 nM	0.00034 s⁻¹	290000 M⁻¹ s⁻¹	–	anti-sugar chain-deficient CD27 chimeric antibody chimeric KM4030 (antibody, human IgG1, V domains shown, made in FUT8 knockout CHO cells, no core fucose; also called anti-sugar chain-deficient CD27 chimeric antibody KM4030) VH: EVQLVESGGGLVQPGRSLKLSCVASGFTFNNYWMTWIRQAPGKGLEWIASITNSGGSTYYPDSVKGRFTISRDNAKGTLYLQMNSLRSEDTATYYCTRDVNTYYGYNALFDYWGQGVMVTVSS VL: DIQMTQSPSVLSASVGDRVTLNCKASQNINEYLNWYQQKLGEAPKLLIYNTNNLQTGIPSRFSGSGSGTDFTLTISSLQPEDFAAYFCFQHNSWPYTFGAGTKLELK	EC50 (read off the curve) [1]: ~0.2 µg/mL; EC50 (read off the curve) [2]: ~0.1 µg/mL; Kd [3]: 1.1 nM; koff [3]: 0.00082 s⁻¹; kon [3]: 740000 M⁻¹ s⁻¹
–	–	–	~0.2 µg/mL	anti-sugar chain-deficient CD27 humanized antibody HV5LV0 (antibody, human IgG1, V domains shown) VH: EVQLVESGGGLVKPGRSLRLSCAASGFTFNNYWMTWIRQAPGKGLEWIASITNSGGSTYYPDSVKGRFTISRDNAKGSLYLQMNSLRAEDTAVYYCTRDVNTYYGYNALFDYWGLGTLVTVSS VL: DIQMTQSPSSLSASVGDRVTITCKASQNINEYLNWYQQKPGKAPKLLIYNTNNLQTGVPSRFSGSGSGTDFTLTISSLQPEDFATYYCFQHNSWPYTFGQGTKLEIK	–
–	–	–	~0.2 µg/mL	anti-sugar chain-deficient CD27 humanized antibody HV7LV0 (antibody, human IgG1, V domains shown) VH: EVQLVESGGGLVKPGRSLRLSCAASGFTFNNYWMTWIRQAPGKGLEWIASITNSGGSTYYPDSVKGRFTISRDNAKGSLYLQMNSLRAEDTATYYCTRDVNTYYGYNALFDYWGLGVLVTVSS VL: DIQMTQSPSSLSASVGDRVTITCKASQNINEYLNWYQQKPGKAPKLLIYNTNNLQTGVPSRFSGSGSGTDFTLTISSLQPEDFATYYCFQHNSWPYTFGQGTKLEIK	–
–	–	–	~0.2 µg/mL	anti-sugar chain-deficient CD27 humanized antibody HV0LV0 (antibody, human IgG1, V domains shown) VH: EVQLVESGGGLVKPGRSLRLSCAASGFTFSNYWMTWIRQAPGKGLEWVSSITNSGGSTYYPDSVKGRFTISRDNAKNSLYLQMNSLRAEDTAVYYCARDVNTYYGYNALFDYWGLGTLVTVSS VL: DIQMTQSPSSLSASVGDRVTITCKASQNINEYLNWYQQKPGKAPKLLIYNTNNLQTGVPSRFSGSGSGTDFTLTISSLQPEDFATYYCFQHNSWPYTFGQGTKLEIK	–
0.51 nM	0.0002 s⁻¹	400000 M⁻¹ s⁻¹	–	anti-sugar chain-deficient CD27 chimeric antibody chimeric KM4031 (antibody, human IgG1, V domains shown, made in FUT8 knockout CHO cells, no core fucose; also called chimeric KM403I) VH: EVQLVESGGGLVEPGRSMKLSCAASGFTFSDYGMAWVRQAPTKGLEWVATITYDGSIYYRDSVKGRFTISRDNAKSTLYLQMNSLRSEDTATYYCTRDPGLYYFDFWGQGVMVTVSS VL: DIVMTQSPSSLAVSAGETVTLNCQSSQSLLYSGNQKNYLAWYQQKPGQSPKLLIYWASTRQSGVPDRFIGSGSGTDFTLTISSVQAEDLAIYYCQQYYNTPRTFGGGTKLELK	–
